Results published in patent publication US20250074996A1.

Molecular target: CD3E on the surface of Jurkat-NFAT-Luc cells (UniProt P07766)
Assay: cell-based or functional assay

CD3E on the surface of Jurkat-NFAT-Luc cells, sequence (P07766 23-207): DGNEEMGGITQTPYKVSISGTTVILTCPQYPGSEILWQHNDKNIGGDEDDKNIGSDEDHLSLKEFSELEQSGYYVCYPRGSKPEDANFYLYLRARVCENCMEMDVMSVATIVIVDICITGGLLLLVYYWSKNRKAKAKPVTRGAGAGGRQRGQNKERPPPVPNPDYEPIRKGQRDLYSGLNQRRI

B1: hz11B7.5/SP34.24 (bispecific antibody, V domains shown)
VH 1: QVQLVQSGAEVKKPGSSVKVSCKASGYTFTTYTMHWVRQAPGQGLEWIGFIIPSSGYTSYNQNFKDKVTLTADKSTSTAYMELSSLRSEDTAVYFCTGGQARAYYPLDYWGQGTLVTVSS
VL 1: EIVMTQSPATLSVSPGERATLSCRASQSIGTTIHWYQQKPGQAPRLLIKYASESISGIPSRFSGSGSGTEFTLTISSLQSEDFAVYYCQQSYNWPRTFGGGTKVEIK
VH 2: EVQLVESGGGLVQPGGSLKLSCAASGFTFNTYAMNWVRQASGKGLEWVGRIRSKYNNYATYYADSVKDRFTISRDDSKSTLYLQMNSLKTEDTAVYYCARHGNFGQSYVSWFAYWGQGTTVTVSS
VL 2: QAVVTQEPSLTVSPGGTVTLTCRSSTGAVTTSNYANWVQQKPGQAPRGLIGGTNKRAPGVPARFSGSLLGDKAALTLLGAQPEDEAEYYCALWYSNLWVFGQGTKLTVL
EC50 of Jurkat-NFAT-Luc luciferase activation; tumor cells 8226: 5.39 pM
EC50 of Jurkat-NFAT-Luc luciferase activation; tumor cells ARD: 2.04 pM
EC50 of Jurkat-NFAT-Luc luciferase activation; tumor cells H929: 2.72 pM
EC50 of Jurkat-NFAT-Luc luciferase activation; tumor cells L363: 2.79 pM
EC50 of Jurkat-NFAT-Luc luciferase activation; tumor cells MM.1S: 1.98 pM
EC50 of Jurkat-NFAT-Luc luciferase activation; tumor cells U266: 4.09 pM
